Measured values as given in patent US20020081652A1 (YEDA RESEARCH AND DEVELOPMENT, published 2002).

T1: α-bungarotoxin (UniProt P60615 22-95)
T1 sequence: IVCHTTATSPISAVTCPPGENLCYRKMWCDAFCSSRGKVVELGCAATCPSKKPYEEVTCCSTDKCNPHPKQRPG


Experiments:
mAb 198 = assay: competition ELISA: fragment preincubated with mAb 198, binding of mAb 198 to coated Torpedo AChR read
Experimental: Microtiter plates were coated with Torpedo AChR (1 μg/ml) in PBS and incubated overnight at 4° C.

α-bungarotoxin = biological target: T1, α-bungarotoxin; assay: blot overlay with 125I-α-BTX, 20 µg fragment

Row | Binder | IC50 (mAb 198) [nM] | binding result (α-bungarotoxin)
1 | Hα1-205 expressed with no fusion partner (receptor, The 5' primer adds an initiation codon (and a Gly codon) before residue 1; also called 'less native' fragment) SEHETRLVAKLFKDYSSVVRPVEDHRQVVEVTAGLQLIQLINVDEVNQIVTTNVRLKQGDMVDLPRPSCVTLGVPLFSHLQDEQWVDYNLKWNPDDYGGVKKIHIPSEKIWRPDLVLYNNADGDFAIVKFTKVLLQYTGHITWTPPAIFKSYCEIIVTHFPFDEQNCSMKLGTWTYDGSVVAINPESDQPDLSNFMESGEWVIKESRGWKHSVTYSCCPDTPYLDITYHF | 3300 | 
2 | Hα1-210 fused to thioredoxin (Trx-Hα1-210) (receptor, Solubilised from inclusion bodies in 9 M urea and dialysed; also called Trx-H1α-210; 'more native' fragment; not shown: thioredoxin (Trx) encoded by the pThioHis-A vector (Invitrogen); the vector's thioredoxin may) SEHETRLVAKLFKDYSSVVRPVEDHRQVVEVTAGLQLIQLINVDEVNQIVTTNVRLKQGDMVDLPRPSCVTLGVPLFSHLQDEQWVDYNLKWNPDDYGGVKKIHIPSEKIWRPDLVLYNNADGDFAIVKFTKVLLQYTGHITWTPPAIFKSYCEIIVTHFPFDEQNCSMKLGTWTYDGSVVAINPESDQPDLSNFMESGEWVIKESRGWKHSVTYSCCPDTPYLDITYHFVMQRL | 300 | binds
